# Laboratory results: the RNAGym collection of RNA variant scans (doi:10.1073/pnas.2313332121)
# This sample holds only a part of the variants without activity.
# B1: TPR 5TU (parent)
# chain: GGAUCUUCUCGAUCUAACAAAAAAGACAAAUCUGCCACAAAGCUUGAGAGCAUCUUCGGAUGCAGAGGCGGCAGCCUUCGGUGGCGCGAUAGCGCCAACGUUCUCAACUAUGACACGCAAAACGCGUGCUCCGUUGAAUGGAGUUUAUCAUG
# Variants of: B1
# Experiment: polymerase ribozyme fitness, log enrichment relative to wild type (log ratio); higher = more active; in vitro selection for triplet polymerase activity
# In short: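 A heterodimeric triplet polymerase ribozyme had each of its subunits mutagenized by PCR into a library, which was transcribed. One round of in vitro selection, done in triplicate, annealed each library with a biotinylated primer, its partner subunit and triplets, then incubated it frozen at −7 °C before gel excision of extended constructs, streptavidin-bead capture and RT-PCR. Fitness is the logarithm of genotype enrichment relative to wild-type enrichment, based on Illumina sequencing of inputs and outputs and inverse-variance-weighted replicate averages. A base-2 logarithm is used, and genotypes were kept only with ≥10 input reads and ≥1 read per output.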
row,Variant,polymerase ribozyme fitness (log ratio)
1,GGAUCUUCUCGAUCUAACAAAAAAGACAAAUCUACCACAAAGCUUGAGAGCAUCGUCGGAUGCAGAGGCGGCAGCCUUCGGUGGCGCGAUAGCGCCAACGUUCUCAACUAUGACACGCAAAACGCGUGCUCCGUUGAAUGGAGUUUAUCAUG [G34A U55G],-0.61
2,GGAUCUUCUCGAUCUAACAAAAAAGACAAAUCUACCACAAAGCUUGAGAGCAUCUUCGGAUGCAGAGGCGGCAGCCUUCGGUGGCGCGAUAGCUCCAACGAUCUCAACUAUGACACGCAAAACGCGUGCUCCGUUGAAUGGAGUUUAUCAUG [G34A G94U U101A],≤ -4.2
3,GGAUCUUCUCGAUCUAACAAAAAAGACAAAUCUACCACAAAGCUUGAGAGCAUCGUCGGAUGCAGAGGCGGCAGCCUUCGGUGGCGCUAUAGCGCCAACGUUCUAAACUAUGACACGCAAAACGCGUGCUCCGUUGAAUGGAGUUUAUCAUG [G34A U55G G88U C105A],≤ -4.2
4,GGAUCUUCUCGAUCUAACAAAAAAGACAAAUCUACCAAAAAGCUUGAGAGCAUCUUCGGAUGCAGAGGCGGCAGCGUUCGGUGGCGCGAUAGCGCCAAGGUUCACAUCUAUGACACGCAAAACGCGUGCUCCGUUGAAUGGAAUUUAUCAUG [G34A C38A C76G C99G U104A A107U G143A],≤ -4.2
5,GGAUCUUCUCGAUCUAACAAAAAAGACAAAUCUACCACAAAGCUUGAGAGCAUCUUCGGAUGCAGAGGCAGCAGCCUUCGGUGGCGCGGUAGCGCCAACGUUCUCAACUAUGACACGCAAAGCGCGUGCUCCGUUGAAUGGAGUUUAUCAUG [G34A G70A A89G A122G],-4.01
6,GGAUCUUCUCGAUCUAACAAAAAAGACAAAUCGGCCACAAAGCAUGAGAGCAUCUUCGGAUGCAGAGGCGGCAGCCUUCGGUGGCGCGAUAGAGCCAACGUUAUGAACUAUGACACGCAAAACGCGUGCUCCCUUGAAUGGAGUUUAUCAUG [U33G U44A C93A C103A C105G G133C],≤ -4.2
7,GGAUCUUCUCGAUCUAACAAAAAAGACAAAUCGGCCACAAAGCUUGAGAGCAUCUUCGGAUGCAGAGGCGGCAGCCUUCGGUGGCGCGAUAGCACCAACGUUCUCAACUAUGACACGCAAAACGCGUGCUCCGUUGAAUGGAGUUUAUCAUG [U33G G94A],-3.04
8,GGAUCUUCUCGAUCUAACAAAAAAGACAAAUCGGCCACAAAGCUUGAGAGCAACUUCGCAUGCAGAGGCGGCAGCCUUCGGUGACGCGAUAGCACCAACGUUCUCAACUAUGACACGCAAAACGGGUGCUCCGUUGAAUGGAGCUUAUCAUG [U33G U53A G59C G84A G94A C125G U144C],≤ -4.2
9,GGAUCUUCUCGAUCUAACAAAAAAGACAAAUCGGCCACAAAGCUUGAGAGUAUCUUCGGAUGCAGAGGCGGCAGCCUUCUGUGGCGAGAUAGCGCUAACGUUCUCAACUAUGACACGCAGAACGCGUGAUCCGUUGAAUGGAGUUUAGCAUG [U33G C51U G80U C87A C96U A120G C129A U148G],≤ -4.2
10,GGAUCUUCUCGAUCUAACAAAAAAGACAAAUCGGCCACAAAGAUUGAGAGCAUCUUAGGCUGCAGAGGCGGCAACCUUCGGUAGGGCGAUAGCGCCAACGUUCUCAACUAUGACACGCAAAACGCGUGCUCCGUUGAAUGGAGUUUAUCUUG [U33G C43A C57A A60C G74A G83A C85G A150U],≤ -4.2
11,GGAUCUUCUCGAUCUAACAAAAAAGACAAAUCGGCCACAAAGCUUGAGAGCAUCUUCGGAUGCAGAGGCGGCAGCCUUCGGUGGCGCGAUAGCGCAAACGUUCUCAACUAUGACACGCAAAACGCGUGCUCCGUUGAAUGGAGUUUAUCAUG [U33G C96A],-1.72
12,GGAUCUUCUCGAUCUAACAAAAAAGACAAAUCGGCCACAAAGCUUGAGAGCAUCUUGGGAUGCAGAGGCGGCAGCCUUCGGUGGCGCGAUAGCGCCAACGUUCGCAACUAUGACACGCAAAACGCGUGCUCCGUUGAAUGGAGUUUAUCAUG [U33G C57G U104G],≤ -4.2
13,GGAUCUUCUCGAUCUAACAAAAAAGACAAAUCGGCCACAAAGCUUGAGAGCAUCUUCGGAUGCAGAGGCGGCAGCCUUCGGUGGUGCGAUAGCGCCAACGUUCUCAACUAUGACACGCAAAACGCGUGCUCCGUUGAAGGGAGUUUAUCAUG [U33G C85U U139G],-3.72
14,GGAUCUUCUCGAUCUAACAAAAAAGACAAAUCUACCACCAAGCUUGAGAGCAUCUUCGGAUGCAGAGGCGGCAGCCUUCGGUGGCGCGAUAGAGCCAACGUUCCCAACUAUGACACGCAAAACGCGUGCUCCGUUGAAUGGAGUUUAUCAUG [G34A A39C C93A U104C],≤ -4.2
15,GGAUCUUCUCGAUCUAACAAAAAAGACAAAUCGGCCACAAAGCUUGAAAGCAUCUUCGGAAGCAGAGGCGGCAGCCUUCGGUGGCGCGAUAGCGCCAACGUUCUCAACUAUGACACGCAAUACGCGUGCUCCGUUGAAUGGGGUUUAUCAUG [U33G G48A U61A A121U A142G],-3.95
16,GGAUCUUCUCGAUCUAACAAAAAAGACAAAUCUACCACAAAGCUUGAGAGCAUCUCCGGAUGCAGAGGCGGCAGCCUUCGGUGGCGCGAUAGCGCCAACGUUCUCAACUAUGACACGCAAAACGCUUGCUCCGUUGAAUGGAGUUUAUCAUG [G34A U56C G126U],-1.64
17,GGAUCUUCUCGAUCUAACAAAAAAGACAAAUCGGCCACAAAACUUGAGGGCAUCUUCGGAUGCAGAGGCGGCAGCCUUCGGUGGCGCGAUAGCGGCAACGUUCUCAACUAUGACACGCAAAACGCGUGCUCCGUUGAAUGGAGUUUAUCAUG [U33G G42A A49G C95G],≤ -4.2
18,GGAUCUUCUCGAUCUAACAAAAAAGACAAAUCUCCCACAAAGCUUGAGAGCAUCUUCGGAUGCAGAGGCGGCAGCCUUCGGUGGCGCGAUAGAGCCAACGUUCUCUACUAUGACACGCAAAACGCGUGCUCCGUUGAAUGGAGUUUAUCAUG [G34C C93A A106U],≤ -4.2
19,GGAUCUUCUCGAUCUAACAAAAAAGACAAAUCUACCACAAAGCUUGAGAGCAUCUUCGGAUGCAGAGGCGGCAGCCUUCGGUGGCGCCAUAGCGCCAACGUUCUCAACUAUGACCCGCAAAACGCGUGCUCCGUUGGAUGGAGUUUAUCAUG [G34A G88C A115C A137G],≤ -4.2
